According to paper PMC7952133:

Experiments:
[1] = target: HIV-1 myristoylated matrix (MA) L75G mutant protein (HIV-1 (pNL4-3 strain)); experiment: AUC; sedimentation equilibrium, 22,000, 26,000 and 30,000 rpm, 20 °C, pH 5.5, 50 mM sodium phosphates, 100 mM NaCl, 2 mM TCEP; global fit to a monomer–trimer equilibrium model (monomers to trimer), monomer mass 15.6 kDa and n = 3 fixed
[2] = target: HIV-1 unmyristoylated matrix Q63R mutant protein (HIV-1 (pNL4-3 strain)); experiment: crystal structure; hanging-drop vapor diffusion, 40% PEG 400, 0.1 M sodium acetate (pH 4), 50 mM lithium sulfate; protein at 20 mg/ml; two crystal forms; molecular replacement with PDB 1HIW
[3] = target: HIV-1 myristoylated matrix (MA) Q63R mutant protein (HIV-1 (pNL4-3 strain)); experiment: AUC; sedimentation equilibrium, 22,000, 26,000 and 30,000 rpm, 20 °C, pH 5.5, 50 mM sodium phosphates, 100 mM NaCl, 2 mM TCEP; global fit to a monomer–trimer equilibrium model (monomers to trimer), monomer mass 15.6 kDa and n = 3 fixed
[4] = target: HIV-1 myristoylated matrix (MA) T70R mutant protein (HIV-1 (pNL4-3 strain)); experiment: as above
[5] = target: HIV-1 myristoylated matrix (MA) A45E mutant protein (HIV-1 (pNL4-3 strain)); experiment: as above
[6] = target: HIV-1 myristoylated matrix (MA) protein, wild type (HIV-1 (pNL4-3 strain)); experiment: as above

HIV-1 myristoylated matrix (MA) L75G mutant protein (natural protein)
Ka [1]: 1e+07 M⁻¹ | stoichiometry N [1]: 3

HIV-1 unmyristoylated matrix Q63R mutant protein (natural protein)
stoichiometry N [2]: 3

HIV-1 myristoylated matrix (MA) Q63R mutant protein (natural protein)
Ka [3]: 2e+07 M⁻¹ | stoichiometry N [3]: 3

HIV-1 myristoylated matrix (MA) T70R mutant protein (natural protein)
Ka [4]: 2.8e+07 M⁻¹ | stoichiometry N [4]: 3

HIV-1 myristoylated matrix (MA) A45E mutant protein (natural protein)
Ka [5]: 2.5e+07 M⁻¹ | stoichiometry N [5]: 3

HIV-1 myristoylated matrix (MA) protein, wild type (natural protein)
Ka [6]: 2e+07 M⁻¹ | stoichiometry N [6]: 3
